B1: library; numbered along this chain (parent)
chain: MAAAAAAAAEQQSSNGPVKKSMREKAVERRSVNKEHNSNFKAGYIPIDEDRLHKTGLRGRKGNLAICVIILLFILAVINLIITLVIWAVIRIGPNGCDSMEFHESGLLRFKQVSDMGVIHPLYKSTVGGRRNENLVITGNNQPIVFQQGTTKLSVENNKTSITSDIGMQFFDPRTQNILFSTDYETHEFHLPSGVKSLNVQKASTERITSNATSDLNIKVDGRAIVRGNEGVFIMGKTIEFHMGGNMELKAENSIILNGSVMVSTTRLPSSSSGDQLGSGDWVRYKLCMCADGTLFKVQVTSQNMGCQISDNPCGNTH

Variants of B1 are the subject of the data set. Briefly: SGCB cell-surface expression functional score (HA stain, bin4 vs bin1, normalised to synonymous) (log10 ratio); higher = more cell-surface SGCB (functional). The procedure, abridged:
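Human beta-sarcoglycan, tagged with HA and fused to YFP, was built into codon-saturation libraries and delivered by lentivirus at MOI <0.1 into HEK293 cells that stably express alpha-, gamma- and delta-sarcoglycan. After 72 hours, YFP-positive cells were sorted and grown for 5–7 days, then stained on ice with Alexa Fluor 647 anti-HA, fixed, sorted into four 5% intensity bins and amplicon-sequenced. Each variant's functional score is the log ratio of its frequency in the highest bin to that in the lowest bin, taken as the median across codons and transductions. Transductions were done in duplicate, and synonymous variants were scaled per section to mean 0, SD 0.5.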
In the case of MAAAAAAAAEQQSSNGPVKKSMREKAVERRSVNKEHNSNFKAGYIPIDEDRLHKTGLRGRKGNLAICVIILLFILAVINLIITLVIWAVIRIGPNGCDSMEFHESGLLRFKQVSDMGVIHPLYKSTVGGRRNENLVITGNNQPIVFQQGTTKLSVENNKTSITSDIGMQFPDPRTQNILFSTDYETHEFHLPSGVKSLNVQKASTERITSNATSDLNIKVDGRAIVRGNEGVFIMGKTIEFHMGGNMELKAENSIILNGSVMVSTTRLPSSSSGDQLGSGDWVRYKLCMCADGTLFKVQVTSQNMGCQISDNPCGNTH [F171P], the “SGCB cell-surface expression functional score (log10)” value is -0.43. The value for MAAAAAAAAEQQSSNGPVKKSMREKAVERRSVNKEHNSNFKAGYIPIDEDRLHKTGLRGRKGNLAICVIILLFILAVINLIITLVIWAVIRIGPNGCDSMEFHESGLLRFKQVSDMGVIHPLYKSTVGGRRNENLVITGNNQPIVFQQGTTKLSVENNKTSITSDIGMQFSDPRTQNILFSTDYETHEFHLPSGVKSLNVQKASTERITSNATSDLNIKVDGRAIVRGNEGVFIMGKTIEFHMGGNMELKAENSIILNGSVMVSTTRLPSSSSGDQLGSGDWVRYKLCMCADGTLFKVQVTSQNMGCQISDNPCGNTH [F171S] was -0.28; that for MAAAAAAAAEQQSSNGPVKKSMREKAVERRSVNKEHNSNFKAGYIPIDEDRLHKTGLRGRKGNLAICVIILLFILAVINLIITLVIWAVIRIGPNGCDSMEFHESGLLRFKQVSDMGVIHPLYKSTVGGRRNENLVITGNNQPIVFQQGTTKLSVENNKTSITSDIGMQFCDPRTQNILFSTDYETHEFHLPSGVKSLNVQKASTERITSNATSDLNIKVDGRAIVRGNEGVFIMGKTIEFHMGGNMELKAENSIILNGSVMVSTTRLPSSSSGDQLGSGDWVRYKLCMCADGTLFKVQVTSQNMGCQISDNPCGNTH [F171C] was -1.66. To MAAAAAAAAEQQSSNGPVKKSMREKAVERRSVNKEHNSNFKAGYIPIDEDRLHKTGLRGRKGNLAICVIILLFILAVINLIITLVIWAVIRIGPNGCDSMEFHESGLLRFKQVSDMGVIHPLYKSTVGGRRNENLVITGNNQPIVFQQGTTKLSVENNKTSITSDIGMQFTDPRTQNILFSTDYETHEFHLPSGVKSLNVQKASTERITSNATSDLNIKVDGRAIVRGNEGVFIMGKTIEFHMGGNMELKAENSIILNGSVMVSTTRLPSSSSGDQLGSGDWVRYKLCMCADGTLFKVQVTSQNMGCQISDNPCGNTH [F171T] belongs 0.72; to MAAAAAAAAEQQSSNGPVKKSMREKAVERRSVNKEHNSNFKAGYIPIDEDRLHKTGLRGRKGNLAICVIILLFILAVINLIITLVIWAVIRIGPNGCDSMEFHESGLLRFKQVSDMGVIHPLYKSTVGGRRNENLVITGNNQPIVFQQGTTKLSVENNKTSITSDIGMQFIDPRTQNILFSTDYETHEFHLPSGVKSLNVQKASTERITSNATSDLNIKVDGRAIVRGNEGVFIMGKTIEFHMGGNMELKAENSIILNGSVMVSTTRLPSSSSGDQLGSGDWVRYKLCMCADGTLFKVQVTSQNMGCQISDNPCGNTH [F171I], 0.86. MAAAAAAAAEQQSSNGPVKKSMREKAVERRSVNKEHNSNFKAGYIPIDEDRLHKTGLRGRKGNLAICVIILLFILAVINLIITLVIWAVIRIGPNGCDSMEFHESGLLRFKQVSDMGVIHPLYKSTVGGRRNENLVITGNNQPIVFQQGTTKLSVENNKTSITSDIGMQFVDPRTQNILFSTDYETHEFHLPSGVKSLNVQKASTERITSNATSDLNIKVDGRAIVRGNEGVFIMGKTIEFHMGGNMELKAENSIILNGSVMVSTTRLPSSSSGDQLGSGDWVRYKLCMCADGTLFKVQVTSQNMGCQISDNPCGNTH [F171V]: the “SGCB cell-surface expression functional score (log10)” value was -0.07. Turning to MAAAAAAAAEQQSSNGPVKKSMREKAVERRSVNKEHNSNFKAGYIPIDEDRLHKTGLRGRKGNLAICVIILLFILAVINLIITLVIWAVIRIGPNGCDSMEFHESGLLRFKQVSDMGVIHPLYKSTVGGRRNENLVITGNNQPIVFQQGTTKLSVENNKTSITSDIGMQFADPRTQNILFSTDYETHEFHLPSGVKSLNVQKASTERITSNATSDLNIKVDGRAIVRGNEGVFIMGKTIEFHMGGNMELKAENSIILNGSVMVSTTRLPSSSSGDQLGSGDWVRYKLCMCADGTLFKVQVTSQNMGCQISDNPCGNTH [F171A], the “SGCB cell-surface expression functional score (log10)” value is -0.81. To MAAAAAAAAEQQSSNGPVKKSMREKAVERRSVNKEHNSNFKAGYIPIDEDRLHKTGLRGRKGNLAICVIILLFILAVINLIITLVIWAVIRIGPNGCDSMEFHESGLLRFKQVSDMGVIHPLYKSTVGGRRNENLVITGNNQPIVFQQGTTKLSVENNKTSITSDIGMQFNDPRTQNILFSTDYETHEFHLPSGVKSLNVQKASTERITSNATSDLNIKVDGRAIVRGNEGVFIMGKTIEFHMGGNMELKAENSIILNGSVMVSTTRLPSSSSGDQLGSGDWVRYKLCMCADGTLFKVQVTSQNMGCQISDNPCGNTH [F171N] belongs -0.08. Take MAAAAAAAAEQQSSNGPVKKSMREKAVERRSVNKEHNSNFKAGYIPIDEDRLHKTGLRGRKGNLAICVIILLFILAVINLIITLVIWAVIRIGPNGCDSMEFHESGLLRFKQVSDMGVIHPLYKSTVGGRRNENLVITGNNQPIVFQQGTTKLSVENNKTSITSDIGMQFEDPRTQNILFSTDYETHEFHLPSGVKSLNVQKASTERITSNATSDLNIKVDGRAIVRGNEGVFIMGKTIEFHMGGNMELKAENSIILNGSVMVSTTRLPSSSSGDQLGSGDWVRYKLCMCADGTLFKVQVTSQNMGCQISDNPCGNTH [F171E]: the “SGCB cell-surface expression functional score (log10)” value is -1.22.

Regarding MAAAAAAAAEQQSSNGPVKKSMREKAVERRSVNKEHNSNFKAGYIPIDEDRLHKTGLRGRKGNLAICVIILLFILAVINLIITLVIWAVIRIGPNGCDSMEFHESGLLRFKQVSDMGVIHPLYKSTVGGRRNENLVITGNNQPIVFQQGTTKLSVENNKTSITSDIGMQFQDPRTQNILFSTDYETHEFHLPSGVKSLNVQKASTERITSNATSDLNIKVDGRAIVRGNEGVFIMGKTIEFHMGGNMELKAENSIILNGSVMVSTTRLPSSSSGDQLGSGDWVRYKLCMCADGTLFKVQVTSQNMGCQISDNPCGNTH [F171Q], the “SGCB cell-surface expression functional score (log10)” value is 0.8. The value for MAAAAAAAAEQQSSNGPVKKSMREKAVERRSVNKEHNSNFKAGYIPIDEDRLHKTGLRGRKGNLAICVIILLFILAVINLIITLVIWAVIRIGPNGCDSMEFHESGLLRFKQVSDMGVIHPLYKSTVGGRRNENLVITGNNQPIVFQQGTTKLSVENNKTSITSDIGMQFKDPRTQNILFSTDYETHEFHLPSGVKSLNVQKASTERITSNATSDLNIKVDGRAIVRGNEGVFIMGKTIEFHMGGNMELKAENSIILNGSVMVSTTRLPSSSSGDQLGSGDWVRYKLCMCADGTLFKVQVTSQNMGCQISDNPCGNTH [F171K] was 0.12; that for MAAAAAAAAEQQSSNGPVKKSMREKAVERRSVNKEHNSNFKAGYIPIDEDRLHKTGLRGRKGNLAICVIILLFILAVINLIITLVIWAVIRIGPNGCDSMEFHESGLLRFKQVSDMGVIHPLYKSTVGGRRNENLVITGNNQPIVFQQGTTKLSVENNKTSITSDIGMQFMDPRTQNILFSTDYETHEFHLPSGVKSLNVQKASTERITSNATSDLNIKVDGRAIVRGNEGVFIMGKTIEFHMGGNMELKAENSIILNGSVMVSTTRLPSSSSGDQLGSGDWVRYKLCMCADGTLFKVQVTSQNMGCQISDNPCGNTH [F171M] was 1.04; that for MAAAAAAAAEQQSSNGPVKKSMREKAVERRSVNKEHNSNFKAGYIPIDEDRLHKTGLRGRKGNLAICVIILLFILAVINLIITLVIWAVIRIGPNGCDSMEFHESGLLRFKQVSDMGVIHPLYKSTVGGRRNENLVITGNNQPIVFQQGTTKLSVENNKTSITSDIGMQFLDPRTQNILFSTDYETHEFHLPSGVKSLNVQKASTERITSNATSDLNIKVDGRAIVRGNEGVFIMGKTIEFHMGGNMELKAENSIILNGSVMVSTTRLPSSSSGDQLGSGDWVRYKLCMCADGTLFKVQVTSQNMGCQISDNPCGNTH [F171L] was 0.15. The value for MAAAAAAAAEQQSSNGPVKKSMREKAVERRSVNKEHNSNFKAGYIPIDEDRLHKTGLRGRKGNLAICVIILLFILAVINLIITLVIWAVIRIGPNGCDSMEFHESGLLRFKQVSDMGVIHPLYKSTVGGRRNENLVITGNNQPIVFQQGTTKLSVENNKTSITSDIGMQFRDPRTQNILFSTDYETHEFHLPSGVKSLNVQKASTERITSNATSDLNIKVDGRAIVRGNEGVFIMGKTIEFHMGGNMELKAENSIILNGSVMVSTTRLPSSSSGDQLGSGDWVRYKLCMCADGTLFKVQVTSQNMGCQISDNPCGNTH [F171R] was 0.04; that for MAAAAAAAAEQQSSNGPVKKSMREKAVERRSVNKEHNSNFKAGYIPIDEDRLHKTGLRGRKGNLAICVIILLFILAVINLIITLVIWAVIRIGPNGCDSMEFHESGLLRFKQVSDMGVIHPLYKSTVGGRRNENLVITGNNQPIVFQQGTTKLSVENNKTSITSDIGMQTFDPRTQNILFSTDYETHEFHLPSGVKSLNVQKASTERITSNATSDLNIKVDGRAIVRGNEGVFIMGKTIEFHMGGNMELKAENSIILNGSVMVSTTRLPSSSSGDQLGSGDWVRYKLCMCADGTLFKVQVTSQNMGCQISDNPCGNTH [F170T] was -0.01. To MAAAAAAAAEQQSSNGPVKKSMREKAVERRSVNKEHNSNFKAGYIPIDEDRLHKTGLRGRKGNLAICVIILLFILAVINLIITLVIWAVIRIGPNGCDSMEFHESGLLRFKQVSDMGVIHPLYKSTVGGRRNENLVITGNNQPIVFQQGTTKLSVENNKTSITSDIGMQSFDPRTQNILFSTDYETHEFHLPSGVKSLNVQKASTERITSNATSDLNIKVDGRAIVRGNEGVFIMGKTIEFHMGGNMELKAENSIILNGSVMVSTTRLPSSSSGDQLGSGDWVRYKLCMCADGTLFKVQVTSQNMGCQISDNPCGNTH [F170S] belongs -0.47; to MAAAAAAAAEQQSSNGPVKKSMREKAVERRSVNKEHNSNFKAGYIPIDEDRLHKTGLRGRKGNLAICVIILLFILAVINLIITLVIWAVIRIGPNGCDSMEFHESGLLRFKQVSDMGVIHPLYKSTVGGRRNENLVITGNNQPIVFQQGTTKLSVENNKTSITSDIGMQVFDPRTQNILFSTDYETHEFHLPSGVKSLNVQKASTERITSNATSDLNIKVDGRAIVRGNEGVFIMGKTIEFHMGGNMELKAENSIILNGSVMVSTTRLPSSSSGDQLGSGDWVRYKLCMCADGTLFKVQVTSQNMGCQISDNPCGNTH [F170V], 0.47; to MAAAAAAAAEQQSSNGPVKKSMREKAVERRSVNKEHNSNFKAGYIPIDEDRLHKTGLRGRKGNLAICVIILLFILAVINLIITLVIWAVIRIGPNGCDSMEFHESGLLRFKQVSDMGVIHPLYKSTVGGRRNENLVITGNNQPIVFQQGTTKLSVENNKTSITSDIGMQYFDPRTQNILFSTDYETHEFHLPSGVKSLNVQKASTERITSNATSDLNIKVDGRAIVRGNEGVFIMGKTIEFHMGGNMELKAENSIILNGSVMVSTTRLPSSSSGDQLGSGDWVRYKLCMCADGTLFKVQVTSQNMGCQISDNPCGNTH [F170Y], -0.86.

On to MAAAAAAAAEQQSSNGPVKKSMREKAVERRSVNKEHNSNFKAGYIPIDEDRLHKTGLRGRKGNLAICVIILLFILAVINLIITLVIWAVIRIGPNGCDSMEFHESGLLRFKQVSDMGVIHPLYKSTVGGRRNENLVITGNNQPIVFQQGTTKLSVENNKTSITSDIGMQRFDPRTQNILFSTDYETHEFHLPSGVKSLNVQKASTERITSNATSDLNIKVDGRAIVRGNEGVFIMGKTIEFHMGGNMELKAENSIILNGSVMVSTTRLPSSSSGDQLGSGDWVRYKLCMCADGTLFKVQVTSQNMGCQISDNPCGNTH [F170R], for which the “SGCB cell-surface expression functional score (log10)” value was -1.14.
